From patent US10227575B2, “Multi-domain enzymes having cutinase activity, compositions comprising same and uses thereof” (OZYMES, priority 2015, dated 2019)
Where “and” joins values, the source holds several entries; their conditions need not be identical. Equal entries are not always repeated. Where two headings read alike, the source gives them in different places. Marks after values point to notes of the source that are not given here.

Assays:
[1] = Stability in the presence of hydrogen peroxide; type: physicochemical
In short: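 Purified cutinases held at room temperature with 0, 30, 100, 300, 1500 or 3000 ppm H2O2; residual esterase activity assayed after 1, 2, 3 and 7 days. Activity read as pNP release at 410 nm from pNP-esters (0.8 mM final) in 50 mM Tris/HCl pH 8.0; U = 1 μmol pNP/min, ε 15 mM^−1 cm^−1.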

[2] = Specific activity of purified enzymes (standard esterase assay); type: biochemical
In short: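 Purified enzymes tested on pNP-esters, including pNP-palmitate, at 0.8 mM final in 50 mM Tris/HCl pH 8.0 (substrate predissolved in 2-propanol). p-Nitrophenol release followed at 410 nm (ε 15 mM^−1 cm^−1); 1 U = 1 μmol pNP/min, specific activity given as U/mg protein.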

[3] = Enzymatic activity in the presence of organic solvents; type: biochemical; conditions: buffer only = 100%
Experimental: Enzyme activity in various organic solvents was studied over a concentration range of 1-30% at room temperature. pNP-palmitate was completely dissolved in 2-propanol (8 mM) and then added to 50 mM Tris/HCl buffer pH 8.0 containing up to 30% organic solvent to give a final substrate concentration of 0.8 mM. The reaction was started by addition of enzyme and the formation of pNP was assayed as described above in Example 20.1.

[4] = type: biochemical, Petromyces albertensis; conditions: for Residual ochratoxin A (%): 5 ppm Ochratoxin A, 37° C., relative to incubation without enzyme
[5] = Circular dichroism spectroscopy, melting temperature and refolding; type: physicochemical
In short: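 Purified protein at 0.15 mg/mL where possible; far-UV CD spectra recorded 190–250 nm against a buffer blank. Unfolding followed at 222 nm from 20 to 90° C. at 2° C. min-1, held 5 min at maximum, then refolding tracked on the reverse ramp; Tm, ΔH, ΔS, ΔG calculated where applicable.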

[6] = Enzyme substrate profiles, esterase assays; type: biochemical; conditions: highest activity towards a specific substrate set to 100%
In short: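 Hydrolysis of pNP-ester substrates, final 0.8 mM (from 8 mM 2-propanol stock), in 50 mM Tris/HCl pH 8.0, followed as pNP release at 410 nm (ε 15 mM^−1 cm^−1). One U = 1 μmol pNP/min; specific activity as U/mg protein.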

[7] = Temperature optimum; type: biochemical; conditions: for Relative activity at temperature: highest activity set to 100%
Experimental: For estimation of the temperature optimum, buffer containing pNP-palmitate (see esterase assay in Example 20.1) was pre-incubated to reach the desired temperature, enzyme was then added, and the formation of pNP was assayed. For this experiment, Tris/HCl buffer was replaced with sodium phosphate buffer (50 mM, pH 8.0) to avoid a pH shift at the different temperatures.

[8] = Activity of crude culture supernatants from bioreactor; type: biochemical; conditions: pNP-dodecanoate

B1: Cf-TP: chimeric variant: catalytic and polymer binding domains of CfCUT with T/P-rich linker domain of KrCUT, SEQ ID NO: 29 (protein)
chain: APACPDVELVFARGTGEAAGLGIVGRPLERALAAELPGRTVVATAVDYAASSSQASAGPGSGDMVAKVRSRAAACPGTQFVLGGYSQGATVTDLALGIRTGVTAGTALPEDLAARVAAVVVYGNPLGLTRRTIAQAAPAFATRTVEYCNAGDPVCEPGGGRFTAHITYATNGTVLEGARFAAARVTAAGTPTTPTPTPTPTPVPTTCVTASSLQHVRDGRAYPLWMRTYARGSGDPLGVLSSRTVVSLQADGTDTWRKVAAC
modifications: YebF carrier; Cf-TP variant
For B1, the “Relative activity (%) after exposure to hydrogen peroxide” value (“Relative activity (%) after exposure” below) ([1]; H2O2 30 ppm, Day 0) was 97 ± 1%, the “Relative activity (%) after exposure” value ([1]; H2O2 30 ppm, Day 1) was 89 ± 4% and the “Relative activity (%) after exposure” value ([1]; H2O2 30 ppm, Day 2) was 78 ± 3%. The “Relative activity (%) after exposure” value ([1]; H2O2 30 ppm, Day 3) was 86 ± 2%, the “Relative activity (%) after exposure” value ([1]; H2O2 30 ppm, Day 7) was 65 ± 7% and the “Relative activity (%) after exposure” value ([1]; H2O2 100 ppm, Day 0) was 98 ± 6%. The “Relative activity (%) after exposure” value ([1]; H2O2 100 ppm, Day 1) was 91 ± 3%, the “Relative activity (%) after exposure” value ([1]; H2O2 100 ppm, Day 2) was 89 ± 7% and the “Relative activity (%) after exposure” value ([1]; H2O2 100 ppm, Day 3) was 94 ± 7%. For the same molecule, the “Relative activity (%) after exposure” value ([1]; H2O2 100 ppm, Day 7) was 74 ± 6%, the “Relative activity (%) after exposure” value ([1]; H2O2 300 ppm, Day 0) was 95 ± 6% and the “Relative activity (%) after exposure” value ([1]; H2O2 300 ppm, Day 1) was 88 ± 3%. For the same molecule, the “Relative activity (%) after exposure” value ([1]; H2O2 300 ppm, Day 2) was 85 ± 12%, the “Relative activity (%) after exposure” value ([1]; H2O2 300 ppm, Day 3) was 98 ± 3% and the “Relative activity (%) after exposure” value ([1]; H2O2 300 ppm, Day 7) was 77 ± 5%. For the same molecule, the “Relative activity (%) after exposure” value ([1]; H2O2 1,500 ppm, Day 0) was 95 ± 9%, the “Relative activity (%) after exposure” value ([1]; H2O2 1,500 ppm, Day 1) was 89 ± 3% and the “Relative activity (%) after exposure” value ([1]; H2O2 1,500 ppm, Day 2) was 88 ± 6%. For the same molecule, the “Relative activity (%) after exposure” value ([1]; H2O2 1,500 ppm, Day 3) was 87 ± 4%, the “Relative activity (%) after exposure” value ([1]; H2O2 1,500 ppm, Day 7) was 68 ± 7% and the “Relative activity (%) after exposure” value ([1]; H2O2 3,000 ppm, Day 0) was 80% and 80 ± 2%. The “Relative activity (%) after exposure” value ([1]; H2O2 3,000 ppm, Day 1) was 74 ± 5%, the “Relative activity (%) after exposure” value ([1]; H2O2 3,000 ppm, Day 2) was 77 ± 2% and the “Relative activity (%) after exposure” value ([1]; H2O2 3,000 ppm, Day 3) was 78 ± 5%. The “Relative activity (%) after exposure” value ([1]; H2O2 3,000 ppm, Day 7) was 57% and 57 ± 5%, the “Enzymatic activity of the purified variant” value ([2]; pNP-palmitate) was 30 ± 2 U/mg and the “Spec. Act. (U/mg)” value ([2]; towards pNP-palmitate (standard assay)) was 30 ± 2 U/mg. The “Relative enzymatic activity (%)” value ([3]; 2-Propanol 5% (v/v)) was 93 ± 1%, the “Relative enzymatic activity (%)” value ([3]; 2-Propanol 10% (v/v)) was 92 ± 2% and the “Relative enzymatic activity (%)” value ([3]; Acetone 1% (v/v)) was 103 ± 12%. The “Relative enzymatic activity (%)” value ([3]; Acetone 5% (v/v)) was 112 ± 10%, the “Relative enzymatic activity (%)” value ([3]; Acetone 10% (v/v)) was 109 ± 6% and the “Relative enzymatic activity (%)” value ([3]; Dimethyl sulfoxide (DMSO) 10% (v/v)) was 150 ± 14%. The “Relative enzymatic activity (%)” value ([3]; Dimethyl sulfoxide (DMSO) 20% (v/v)) was 146 ± 23%, the “Relative enzymatic activity (%)” value ([3]; Dimethyl sulfoxide (DMSO) 30% (v/v)) was 129 ± 18% and the “Relative enzymatic activity (%)” value ([3]; Dimethylformamide (DMF) 5% (v/v)) was 134 ± 10%. For the same molecule, the “Relative enzymatic activity (%)” value ([3]; Methanol 10% (v/v)) was 121 ± 14%, the “Relative enzymatic activity (%)” value ([3]; Methanol 20% (v/v)) was 94 ± 1% and the “Residual ochratoxin A (%)” value ([4]; 1 h) was 5%. For the same molecule, the “Residual ochratoxin A (%)” value ([4]; 4 h) was 0%, the “Residual ochratoxin A (%)” value ([4]; 24 h) was 0% and the “Ochratoxin A degraded” value ([4]; after 4 hours) was 100%. The “Ochratoxin A Degradation per U and h” value ([4]; per 1 U of enzyme (pNP standard test) and hour at 37° C.) was 98 µmol, the refolding ([5]; CD at 222 nm) was “some refolding” and the “melting temperature (Tm)” value ([5]; CD at 222 nm, unfolding) was 56.6 °C. The “Tm (° C.)” value ([5]; estimated using CD-spectroscopy) was 57 ± 1 °C, the “Relative activity, pNP-acetate (C2)” value [6] was 5% and the “Relative activity, pNP-butyrate (C4)” value [6] was 80 ± 3%. The “Relative activity, pNP-caprylate (C8)” value [6] was 33 ± 1%, the “Relative activity, pNP-decanoate (C10)” value [6] was 66 ± 8% and the “Relative activity, pNP-myristate (C14)” value [6] was 40 ± 4%. For the same molecule, the “Relative activity, pNP-palmitate (C16)” value [6] was 100* %, the “Temp. opt. (° C.)” value [7] was 35 °C and the “Relative activity at temperature” value ([7]; 20 ° C.) was 54 ± 5%. The “Relative activity at temperature” value ([7]; 25 ° C.) was 84 ± 9%, the “Relative activity at temperature” value ([7]; 30 ° C.) was 95 ± 5% and the “Relative activity at temperature” value ([7]; 35 ° C.) was 100* %. For the same molecule, the “Relative activity at temperature” value ([7]; 40 ° C.) was 89 ± 6%, the “Relative activity at temperature” value ([7]; 45 ° C.) was 72 ± 7% and the “Relative activity at temperature” value ([7]; 50 ° C.) was 37 ± 6%. The “Relative activity at temperature” value ([7]; 55 ° C.) was 9 ± 1% and the “activity of crude culture supernatant” value [8] was 0.6 U/mL.
